What all share (experiment): two-hybrid library CCNG1;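 further: natural log of median RNA to DNA barcode read ratio; higher means stronger binding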
Assay [1] has as its target T1, O15-bH.
T1 chain: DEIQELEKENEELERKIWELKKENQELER

Assay [2] deals with T2, O16-bH.
T2 chain: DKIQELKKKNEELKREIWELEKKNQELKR

The target in assay [3] is T3, O2-bH.
T3 chain: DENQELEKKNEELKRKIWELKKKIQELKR

Assay [4] deals with T4, O3-bH.
T4 chain: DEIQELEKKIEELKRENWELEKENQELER

Assay [5] concerns the target T5, O4-bH.
T5 chain: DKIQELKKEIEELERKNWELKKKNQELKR

In assay [6] the target is T6, O5-bH.
T6 chain: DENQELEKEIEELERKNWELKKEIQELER

For assay [7], the target named is T7, O6-bH.
T7 chain: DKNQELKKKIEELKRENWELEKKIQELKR

The target in assay [8] is T8, O7-bH.
T8 chain: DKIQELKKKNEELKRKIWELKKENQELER

Assay [9] concerns the target T9, O8-bH.
T9 chain: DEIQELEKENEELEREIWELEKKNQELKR

Assay [10] deals with T10, O9-bH.
T10 chain: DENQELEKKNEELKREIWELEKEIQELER

The target in assay [11] is T11, 4H2586-bN.
T11 chain: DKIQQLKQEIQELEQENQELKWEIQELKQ

Assay [12] deals with T12, 4H2627-bN.
T12 chain: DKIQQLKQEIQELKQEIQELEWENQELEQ

Assay [13] has as its target T13, 4H2673-bN.
T13 chain: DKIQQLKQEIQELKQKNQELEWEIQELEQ

Assay [14] deals with T14, 4H2702-bN.
T14 chain: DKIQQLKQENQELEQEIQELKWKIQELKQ

The target of assay [15] is T15, 4H3010-bN.
T15 chain: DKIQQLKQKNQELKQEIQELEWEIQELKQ

Assay [16] addresses T16, 4H3112-bN.
T16 chain: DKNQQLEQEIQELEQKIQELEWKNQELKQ

In assay [17] the target is T17, 4H3427-bN.
T17 chain: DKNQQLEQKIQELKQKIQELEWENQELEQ

For assay [18], the target named is T18, 4H346-bN.
T18 chain: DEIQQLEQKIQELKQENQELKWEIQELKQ

Assay [19] deals with T19, 4H3628-bH.
T19 chain: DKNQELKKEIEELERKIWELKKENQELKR

Assay [20] addresses T20, 4H3926-bN.
T20 chain: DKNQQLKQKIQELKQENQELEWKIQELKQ

The target in assay [21] is T21, 4H4073-bN.
T21 chain: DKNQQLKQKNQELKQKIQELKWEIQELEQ

In assay [22] the target is T22, 4H457-bN.
T22 chain: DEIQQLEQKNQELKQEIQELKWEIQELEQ

The target in assay [23] is T23, 4H575-bN.
T23 chain: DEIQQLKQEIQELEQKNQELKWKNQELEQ

For assay [24], the target named is T24, 4H683-bN.
T24 chain: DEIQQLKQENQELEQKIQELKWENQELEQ

The target of assay [25] is T25, 4H754-bN.
T25 chain: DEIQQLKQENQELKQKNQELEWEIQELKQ

The target of assay [26] is T26, 4H780-bN.
T26 chain: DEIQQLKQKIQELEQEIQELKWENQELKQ

Assay [27] addresses T27, 4H797-bN.
T27 chain: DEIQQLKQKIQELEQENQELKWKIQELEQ

The target of assay [28] is T28, 4H855-bN.
T28 chain: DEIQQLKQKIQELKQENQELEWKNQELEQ

Assay [29] concerns the target T29, 4H918-bN.
T29 chain: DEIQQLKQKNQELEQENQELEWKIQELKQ

Assay [30] addresses T30, 4H953-bN.
T30 chain: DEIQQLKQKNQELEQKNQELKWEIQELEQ

The target in assay [31] is T31, 4H968-bN.
T31 chain: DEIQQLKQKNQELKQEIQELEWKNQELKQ

In assay [32] the target is T32, 4H363-bN.
T32 chain: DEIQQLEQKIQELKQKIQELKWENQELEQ

For assay [33], the target named is T33, 4H3907-bN.
T33 chain: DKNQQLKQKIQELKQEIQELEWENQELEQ

Assay [34] deals with T34, 4H3961-bN.
T34 chain: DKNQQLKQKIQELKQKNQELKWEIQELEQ

Assay [35] has as its target T35, 4H470-bN.
T35 chain: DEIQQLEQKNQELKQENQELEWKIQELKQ

Assay [36] addresses T36, 4H349-bA.
T36 chain: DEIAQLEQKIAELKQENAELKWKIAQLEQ

Assay [37] addresses T37, 4H3189-bA.
T37 chain: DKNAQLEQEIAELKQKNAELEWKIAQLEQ

Assay [38] addresses T38, 4H883-bH.
T38 chain: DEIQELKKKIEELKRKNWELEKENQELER

Assay [39] has as its target T39, P5mSN.
T39 chain: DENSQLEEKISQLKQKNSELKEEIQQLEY

Assay [40] has as its target T40, P6mSN.
T40 chain: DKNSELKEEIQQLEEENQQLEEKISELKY

The target in assay [41] is T41, P7mSN.
T41 chain: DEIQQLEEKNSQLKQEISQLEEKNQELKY

For assay [42], the target named is T42, P8mSN.
T42 chain: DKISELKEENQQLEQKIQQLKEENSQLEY

DKNQELKKKIEELKRKNWELKKEIQELER [O13-bH]: the interaction score in assay [1] is 1.51; in assay [2], -1.44; in assay [3], -2.29; in assay [4], 0.496; in assay [5], -0.471; in [6], 0.194. The interaction score in [7] is -0.527; in [8], -0.211; in assay [9] it was 0.569; in [10], -0.0315.

Regarding DKIQQLKQEIQELEQENQELKWEIQELKQ [4H2586-bN], the interaction score in assay [11] was 0.806; in assay [12], -0.115; in [13], -1.47; in assay [14] it was -0.448; in assay [15], 0.0264; in assay [16], -1.32. Moreover, the interaction score was 0.526 in [17]; 1.97 in [18]; 1.41 in [19]; 0.209 in assay [20]; -0.362 in [21]; -0.912 in [22]. The interaction score was -1.1 in assay [23]; 0.147 in assay [24]; -1.88 in assay [25]; -1.16 in assay [26]; -0.469 in assay [27]; -0.916 in assay [28]. The interaction score is -1.12 in [29], -1.01 in assay [30] and -1.31 in assay [31].

In the case of DEIQQLEQKIQELKQKIQELKWENQELEQ [4H363-bN], the interaction score was 0.903 in assay [32], 0.321 in [33], -0.162 in [34] and -0.702 in [35].

Take DENQQLKQKIQELEQKIQELEWKNQELEQ [4H1831-bN]: the interaction score in [11] was -0.466; in [12], 1.7; in [13], -0.269; in [14], -0.111; in assay [15], -0.741; in assay [16], -0.567. In addition, the interaction score in assay [17] was -0.445; in [18], 0.142; in assay [36], -1.73; in assay [20] it was -0.39; in assay [21], 0.223; in assay [22], -1.9. Moreover, the interaction score in assay [23] is -0.248; in assay [24], -2.14; in assay [25], -0.46; in assay [26], -1.02; in assay [27] it was -0.203; in assay [28], -0.282. In addition, the interaction score was -0.624 in [29], -0.677 in [30] and -0.157 in assay [31].

In the case of DENQELEKEIEELERENWELEKKIQELKR [O14-bH], the interaction score in assay [1] was 1.43; in assay [2], 1.45; in [3], -1.83; in assay [4], -0.0193; in assay [5], 0.39; in assay [6] it was -1.91. Besides, the interaction score in assay [7] is 1.63; in [8], 1.56; in assay [9] it was -1.78; in assay [10] it was 0.497.

For the molecule DKIQQLKQEIQELKQEIQELEWENQELEQ [4H2627-bN], the interaction score in assay [12] was -1.18; in [13], -0.336; in assay [14], -0.837; in assay [15], -0.478; in [16] it was -0.418; in assay [37], -2.27. Further, the interaction score in [17] is -0.336; in [18] it was -1.49; in assay [20], -0.972; in assay [21], 0.24; in assay [22] it was -1.44; in assay [23], 0.336. Besides, the interaction score in [24] was -0.185; in assay [25] it was -1.21; in [26] it was -0.619; in [27], -2.2; in assay [28] it was -0.307; in [38] it was 0.737. For the same molecule, the interaction score in assay [29] is -0.935; in [30] it was -1.1; in [31], -0.499.

For DKIQELKKKNEELKREIWELEKKNQELKR [O16-bH], the interaction score in assay [2] was 0.441; in [3], -1.39; in assay [4], 1.41; in assay [5], 0.0481; in assay [6], -0.611; in [7], 1.06. The interaction score in [8] is 1.17; in assay [9], 0.7; in [10], -0.421.

Take DEIQELEKENEELERKIWELKKENQELER [O15-bH]: the interaction score in assay [1] is 0.268; in [2] it was 1.62; in [3], -0.549; in [4], -0.38; in [5], -1.19; in [6], -1.6. The interaction score in [7] was -0.0351; in [8], 1.73; in assay [9], 0.416; in assay [10], -0.267.

As for DENSQLEEKISQLKQKNSELKEEIQQLEY [P5mSN], the interaction score in assay [39] is -1.4; in [40], 0.0393; in assay [41], -0.763; in assay [42] it was -0.632.
